Experimental data as given in patent publication US20250376535A1 (BEIJING STARMAB BIOMED TECHNOLOGY, published 2025).

B1: pgEG5 (VHH, not shown: small tags and cut ends)
VHH: QVQLVESGGGLVQPGGSLRLSCTASHNIFSDNAMAWSRQAPGAQRELVARIATGGNTYYPDSVKGRFTISRDNAKNTVYLQMNNLTPDDTAVYYCYAERWTGLEYSRTYWGQGTQVTVSS
B2: pgEG-SX6 (VHH, not shown: small tags and cut ends)
VHH: QVQLVESGGGTVQAGGSLRLSCVASGMREDIFDMGWYRQAPGLQRELVATITSGGSTDYADSVKGRFTISRDNTENTLNLQMNMLKPEDTAVYYCNALYFPPSGGRSSEFWGQGTLVTVSS
B3: pgEG-SX3 (VHH, not shown: small tags and cut ends)
VHH: QVQLVESGGGLVQAGGSLRLSCVVYGSIFASTTMGWYRQAPGKQRELVATVYQSGTSVYADSVKGRFTASRDNAKKTVYLQMNSLKPEDTAVYYCHPRATDYWGRGTQVTVSS
B4: pgEG-SX57 (VHH, not shown: small tags and cut ends)
VHH: QVQLVESGGGLVQAGGSLRLSCAGARSIFSIKPMTWYRQAPGKERELVAWFTSGDSPNYADSVKGRFTISRDSAKNTVYLQMNNLKPEDTAVYYCNAVPPLGRWGQGTLVTVSS
B5: pgEG-SX22 (VHH, not shown: small tags and cut ends)
VHH: QVQLVESGGGLVQAGGSLRVSCAVSGGALSAYAMAWFRQAPGKEREFVAGLNWGGDETYYADSAKGRFTISKDNAKNTVSLQMNSLEPEDTAVYYCGGRPGPLLSRATGYKYWGQGTQVTVSS
B6: pgEG-SX40 (VHH, not shown: small tags and cut ends)
VHH: QVQLVESGGGLVQAGGSLRLSCTGSGIRFSFYTLGWYRQAPGKQRELVAEIYSSDNAKYEDSVKGRFAISRDNAKNSVSLQMNSLKPEDTAVYYCNVRATDYWGPGTQVTVSS
B7: Humanized MSA4-1 (VHH)
VHH: EVQLVESGGGLVQPGGSLRLSCAASGRTDSAYRMGWFRQAPGKEREFVSAINWSDGRTVYLDSVKGRFTISRDNAKNTLYLQMNSLRAEDTAVYYCAADPDSRLYYTVPQNYDYWGQGTQVTVSS
notes: Humanization of MSA4 based on human germline IGHV3-23*04; also called hMSA4-1; not shown: His tag (BLI used HIS tagged MSA VHHs)

target: T1, EGFR Fc (human, UniProt P00533 25-645); experiment: ELISA, EGFR Fc coated
T1 construct: also called EGFR-hFc; recombinant human EGFR-Fc
Procedure: (§1) After four rounds of washing with PBST, the plate was incubated with detecting antibody anti-his-HRP (1:4000 dilution) 100 μl per well for one hour with shaking at 60 rpm. The plate was developed with 100 μL of TMB per well in the dark and then stopped by 50 μL of stop solution per well. […] Data was analyzed using GraphPad Prisma 9.1.

Row | Binder | EC50
1 | B1 | 0.426 nM
2 | B2 | 0.12 nM
3 | B3 | 0.382 nM
4 | B4 | 0.022 nM
5 | B5 | 0.0072 nM
6 | B6 | 0.769 nM

target: T2, EGFR (recombinant human, BLI antigen) (human, UniProt P00533 25-645); experiment: BLI (Octet) as in Example 1
T2 construct: also called rh-EGFR; human EGFR

Row | Binder | Kd | koff | kon
7 | B1 | 10.8 nM | 0.00134 s⁻¹ | 124000 M⁻¹ s⁻¹
8 | B2 | 0.798 nM | – | –
9 | B3 | 0.602 nM | – | –
10 | B4 | 1.87 nM | – | –
11 | B5 | 0.464 nM | – | –
12 | B6 | 1.13 nM | – | –

target: T1, EGFR Fc; experiment: ELISA, EGFR Fc coated, VHH at 2 nM
Procedure: as §1

Row | Binder | OD450
13 | B1 | 2.23
14 | B2 | 1.83
15 | B3 | 0.843
16 | B4 | 2.79
17 | B5 | 1.88
18 | B6 | 0.626

target: T1, EGFR Fc; experiment: ELISA, EGFR Fc coated, VHH at 10 nM
Procedure: as §1

Row | Binder | OD450
19 | B1 | 2.35
20 | B2 | 1
21 | B3 | 0.994
22 | B4 | 2.54
23 | B5 | 1.94
24 | B6 | 0.715

target: T1, EGFR Fc; experiment: ELISA, EGFR Fc coated, VHH at 50 nM
Procedure: as §1

Row | Binder | OD450
25 | B1 | 2.33
26 | B2 | 1.15
27 | B3 | 1.21
28 | B4 | 2.46
29 | B5 | 1.78
30 | B6 | 0.786

target: T1, EGFR Fc; experiment: ELISA, EGFR Fc coated, VHH at 0.4 nM
Procedure: as §1

Row | Binder | OD450
31 | B1 | 1.2
32 | B2 | 1.16
33 | B3 | 0.762
34 | B4 | 2.67
35 | B5 | 1.72
36 | B6 | 0.461

target: T1, EGFR Fc; experiment: ELISA, EGFR Fc coated, VHH at 500 nM
Procedure: as §1

Row | Binder | OD450
37 | B1 | 2.52
38 | B2 | 1.37
39 | B3 | 1.47
40 | B4 | 2.61
41 | B5 | 2.16
42 | B6 | 0.963

target: T1, EGFR Fc; experiment: ELISA, EGFR Fc coated, VHH at 0.08 nM
Procedure: as §1

Row | Binder | OD450
43 | B1 | 0.34
44 | B2 | 0.496
45 | B3 | 0.373
46 | B4 | 2.37
47 | B5 | 1.43
48 | B6 | 0.25

target: T1, EGFR Fc; experiment: ELISA, EGFR Fc coated, VHH at 0.016 nM
Procedure: as §1

Row | Binder | OD450
49 | B1 | 0.147
50 | B2 | 0.139
51 | B3 | 0.134
52 | B4 | 1.33
53 | B5 | 0.871
54 | B6 | 0.144

target: T1, EGFR Fc; experiment: ELISA, EGFR Fc coated, VHH at 0.0032 nM
Procedure: as §1

Row | Binder | OD450
55 | B1 | 0.119
56 | B2 | 0.082
57 | B3 | 0.086
58 | B4 | 0.648
59 | B5 | 0.304
60 | B6 | 0.121

target: T1, EGFR Fc; experiment: blocking ELISA, EGFR-hFc + VHH at 0 nM on coated EGF-mFc
Procedure: (§2) After incubation at 4° C. overnight, the plate was washed four times of PBST and blocked with 200 μl per well of 2% BSA for one hour at room temperature. […] The plate was washed twice with PBST, and the pre-mixed samples were added to the 96-well plate shaking at 60 rpm for one hour at room temperature. After four washes of PBST, the plate was incubated with detecting antibody anti-his-HRP (1:4000 dilution) 100 μl per well for one hour with shaking at 60 rpm. The plate was washed with four times of PBST and added 100 μl per well of substrate TMB followed by 50 μl of stop solution.

Row | Binder | OD450
61 | B1 | 1.2
62 | B2 | 1.04
63 | B3 | 1.06
64 | B4 | 1.11
65 | B5 | 1.07
66 | B6 | 1.14

target: T1, EGFR Fc; experiment: blocking ELISA, EGFR-hFc + VHH at 8 nM on coated EGF-mFc
Procedure: as §2

Row | Binder | OD450
67 | B1 | 1.07
68 | B2 | 0.757
69 | B3 | 0.562
70 | B4 | 0.649
71 | B5 | 0.736
72 | B6 | 0.633

target: T1, EGFR Fc; experiment: blocking ELISA, EGFR-hFc + VHH at 40 nM on coated EGF-mFc
Procedure: as §2

Row | Binder | OD450
73 | B1 | 1.11
74 | B2 | 0.606
75 | B3 | 0.482
76 | B4 | 0.433
77 | B5 | 0.801
78 | B6 | 0.414

target: T1, EGFR Fc; experiment: blocking ELISA, EGFR-hFc + VHH at 1.6 nM on coated EGF-mFc
Procedure: as §2

Row | Binder | OD450
79 | B1 | 1.18
80 | B2 | 0.928
81 | B3 | 0.723
82 | B4 | 0.919
83 | B5 | 0.864
84 | B6 | 0.922

target: T1, EGFR Fc; experiment: blocking ELISA, EGFR-hFc + VHH at 200 nM on coated EGF-mFc
Procedure: as §2

Row | Binder | OD450
85 | B1 | 1.2
86 | B2 | 0.668
87 | B3 | 0.382
88 | B4 | 0.158
89 | B5 | 0.903
90 | B6 | 0.147

target: T1, EGFR Fc; experiment: blocking ELISA, EGFR-hFc + VHH at 0.32 nM on coated EGF-mFc
Procedure: as §2

Row | Binder | OD450
91 | B1 | 1.16
92 | B2 | 1.07
93 | B3 | 0.806
94 | B4 | 1.08
95 | B5 | 0.955
96 | B6 | 1.03

target: T1, EGFR Fc; experiment: blocking ELISA, EGFR-hFc + VHH at 1000 nM on coated EGF-mFc
Procedure: as §2

Row | Binder | OD450
97 | B1 | 1.22
98 | B2 | 0.646
99 | B3 | 0.336
100 | B4 | 0.15
101 | B5 | 0.96
102 | B6 | 0.151

target: T1, EGFR Fc; experiment: blocking ELISA, EGFR-hFc + VHH at 0.064 nM on coated EGF-mFc
Procedure: as §2

Row | Binder | OD450
103 | B1 | 1.15
104 | B2 | 0.956
105 | B3 | 0.979
106 | B4 | 1.14
107 | B5 | 0.983
108 | B6 | 1.06

target: T3, human serum albumin (human, UniProt P02768 25-609); experiment: BLI (Gator), His-tagged VHH on anti-His sensor, HSA 100 nM in solution
T3 construct: also called HSA
Procedure: (§3) Kinetic binding analysis of MSA VHHs were performed with Gator Prime system equipped with analyze software. […] The experiments were done at 30° C. Prior to analysis, sensors were socked in Q buffer for 600 sec with shaking at 1000 rpm, and then 2 μM of HIS tagged MSA VHHs were loaded to Anti-His sensors with shaking at 400 rpm for 120 sec. Loaded sensors were transferred into Q buffer for 60 sec. Association of HSA or MSA at 100 nM was initiated and monitored for 120-180 sec with shaking at 1000 rpm, and finally dissociation in Q buffer for 120-180 sec with 1000 rpm shaking. Software V2.0 (Gator Bio) was used for data analysis. The on-rate (Kₒₙ) and off-rate (Kd) were determined by fitting of the association and dissociation phases of each sample. The mathematical model used assumes a 1:1 stoichiometry, fitting only one analyte in solution binding to one binding site on the surface. The equilibrium dissociation constant (KD), a measure for affinity, was then calculated as the ratio of Kd and Kₒₙ.

Row | Binder | Kd | koff | kon
109 | B7 | 5.38 nM | 0.000545 s⁻¹ | 101000 M⁻¹ s⁻¹

target: T2, EGFR (recombinant human, BLI antigen); experiment: BLI (Octet) as in Example 1; printed under the head Kdis(1/s), read as kon

Row | Binder | kon
110 | B2 | 500000 M⁻¹ s⁻¹
111 | B3 | 457000 M⁻¹ s⁻¹
112 | B4 | 381000 M⁻¹ s⁻¹
113 | B5 | 602000 M⁻¹ s⁻¹
114 | B6 | 358000 M⁻¹ s⁻¹

target: T2, EGFR (recombinant human, BLI antigen); experiment: BLI (Octet) as in Example 1; printed under the head Kon(1/Ms), read as koff

Row | Binder | koff
115 | B2 | 0.000399 s⁻¹
116 | B3 | 0.000275 s⁻¹
117 | B4 | 0.000715 s⁻¹
118 | B5 | 0.00028 s⁻¹
119 | B6 | 0.000406 s⁻¹

target: T4, murine serum albumin (murine, UniProt P07724 25-608); experiment: BLI (Gator), His-tagged VHH on anti-His sensor, murine serum albumin 100 nM in solution
T4 construct: As antigen 'MSA' means murine serum albumin; the VHHs also carry the label MSA; also called MSA
Procedure: as §3

Row | Binder | Kd | koff | kon
120 | B7 | 5.58 nM | 0.000678 s⁻¹ | 121000 M⁻¹ s⁻¹
